Results: US20230038638A1, “COMPLEMENT FACTOR I-RELATED COMPOSITIONS AND METHODS” (published 2023)
Substitutions are numbered along the chain they refer to. Like-named read-outs stand apart in the source and are kept apart here. Values belong to the molecule of their own block, whether it stands above or below them.

Experiments:
C4b [1] = biological target: T1, C4b (human, UniProt P0C0L4)
T1 sequence: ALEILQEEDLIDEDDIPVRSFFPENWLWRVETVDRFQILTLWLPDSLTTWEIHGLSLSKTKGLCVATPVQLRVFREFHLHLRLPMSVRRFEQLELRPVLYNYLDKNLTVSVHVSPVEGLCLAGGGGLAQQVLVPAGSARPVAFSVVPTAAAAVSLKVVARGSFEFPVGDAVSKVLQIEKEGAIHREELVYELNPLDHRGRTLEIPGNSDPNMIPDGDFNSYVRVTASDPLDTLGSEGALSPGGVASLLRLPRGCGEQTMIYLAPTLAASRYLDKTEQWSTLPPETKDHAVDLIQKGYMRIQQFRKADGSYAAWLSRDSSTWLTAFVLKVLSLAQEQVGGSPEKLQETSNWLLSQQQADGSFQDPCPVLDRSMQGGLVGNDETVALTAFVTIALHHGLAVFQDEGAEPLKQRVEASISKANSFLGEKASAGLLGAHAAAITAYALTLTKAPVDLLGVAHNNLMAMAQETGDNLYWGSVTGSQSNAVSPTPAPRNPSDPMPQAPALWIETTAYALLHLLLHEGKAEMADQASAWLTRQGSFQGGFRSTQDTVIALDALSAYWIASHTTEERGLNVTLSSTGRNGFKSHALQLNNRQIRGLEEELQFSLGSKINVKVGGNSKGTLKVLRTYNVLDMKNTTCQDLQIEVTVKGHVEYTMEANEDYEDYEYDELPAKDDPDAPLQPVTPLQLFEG

C3b [2] = biological target: T2, C3b (human, UniProt P01024)
C4b [3] = biological target: T1, C4b; remark: listed apart in the source
[4] = biological target: soluble human C3b (human) (UniProt P01024)
C3b [5] = biological target: T2, C3b; remark: listed apart in the source
C3b [6] = biological target: T2, C3b; remark: listed apart in the source
C3b [7] = biological target: T2, C3b; remark: listed apart in the source
C3b [8] = biological target: T2, C3b; remark: listed apart in the source
[9] = biological target: CFI-HSA (human serum albumin fused to the N-terminal end of wild type CFI) (human)
C3b [10] = biological target: T2, C3b; remark: listed apart in the source
human C4b (human) [11] = biological target: T3, human C4b (human) (UniProt P0C0L5)
T3 sequence: T1 sequence with A151T, D317G, P364L, C365S, L368I, D369H, N420S, V451A, L454R, S530A

[12] = biological target: soluble human C3b (human) (UniProt P01024); remark: listed apart in the source
human C4b (human) [13] = biological target: T3, human C4b (human); remark: listed apart in the source
[14] = biological target: soluble human C3b (human) (UniProt P01024); remark: listed apart in the source
[15] = biological target: soluble human C3b (human) (UniProt P01024); remark: listed apart in the source
C4b [16] = biological target: T1, C4b; assay: cell-based or functional assay
C3b [17] = biological target: T2, C3b; assay: cell-based or functional assay

Molecule: CFI-HSA variant E457G + CR1(CCP1-3) (from UniProt P17927) (enzyme)
- CP IC50, classical pathway hemolysis of sensitised sheep red cells (C4b [1]): 122 nM
- AP IC50, alternative pathway hemolysis (C3b [2]): 86 nM

Molecule: CFI-HSA (E457G; N531G variant) (enzyme)
- Fold-decrease EC50 (iC3b) vs. CFI WT [4]: 3.86 fold

Molecule: CFI-HSA variant N531G + P535A (enzyme)
- C3b cleavage, % Activity (C3b [5]): 120%
- C3dg formation in activated human serum (TRIFMA), EC50 WT/EC50Variant (C3b [6]): 26.2
- C3b cleavage rate, kmut/kwt (C3b [7]): 3
- C3dg formation (TRIFMA), EC50 against wild type (FIG. 10) (C3b [8]): 18 fold

Molecule: CFI-HSA (E416A; D425R; E457G; N531G variant) (enzyme)
- Fold-decrease EC50 (iC3b) vs. CFI WT [4]: 8.03 fold

Molecule: HSA + CfI + GGSSGG (SEQ ID NO: 6) + CR1(ccp15-17) (enzyme)
- C3c No Cofactor EC50 (C3b cleavage, iC3b ELISA) (C3b [10]): 33.7 nM
- C4c No Cofactor EC50 (C4b cleavage, C4c ELISA) (C4b [3]): 63.5 nM

Molecule: CFI-HSA variant Y408L; E457G; N531G; P535G with hCR1; CCP15; CCP16; CCP17 C-terminal fusion (enzyme)
- C4c No Cofactor EC50 (C4b cleavage, C4c ELISA) (C4b [3]): 97.7 nM

Molecule: CFI-HSA variant D425R (enzyme)
- C3b cleavage, % Activity (C3b [5]): 104%
- C3dg formation in activated human serum (TRIFMA), EC50 WT/EC50Variant (C3b [6]): 4.2
- C3b cleavage rate, kmut/kwt (C3b [7]): 2
- C4b Screen Ref Fold (fold vs CFI-HSA wild type) (human C4b (human) [11]): 0.69
- iC3b Screen Ref Fold (fold vs CFI-HSA wild type) [12]: 1.46

Molecule: CFI-HSA variant D425A (enzyme)
- C3b cleavage, % Activity (C3b [5]): 103%
- C3dg formation in activated human serum (TRIFMA), EC50 WT/EC50Variant (C3b [6]): 1.7
- C3b cleavage rate, kmut/kwt (C3b [7]): 1
- C4b Screen Ref Fold (fold vs CFI-HSA wild type) (human C4b (human) [11]): 2.71
- iC3b Screen Ref Fold (fold vs CFI-HSA wild type) [12]: 1.07

Molecule: CFI-HSA variant E457G; P535G with hCR1; CCP15; CCP16; CCP17 C-terminal fusion (enzyme)
- C4c No Cofactor EC50 (C4b cleavage, C4c ELISA) (C4b [3]): 35.9 nM

Molecule: CFI-HSA variant N531G with hCR1; CCP15; CCP16; CCP17 C-terminal fusion (enzyme)
- C4c No Cofactor EC50 (C4b cleavage, C4c ELISA) (C4b [3]): 76.2 nM

Molecule: CFI-HSA (human serum albumin fused to the N-terminal end of wild type CFI) (enzyme)
- C4b cleavage EC50 (human C4b (human) [13]): 365 nM
- C3b cleavage EC50 [14]: 25.5 nM

Molecule: CFI-HSA variant Y408L; E457G; R462K; F464Y; N531G with hCR1; CCP15; CCP16; CCP17 C-terminal fusion (enzyme)
- C4c No Cofactor EC50 (C4b cleavage, C4c ELISA) (C4b [3]): 104 nM

Molecule: CFI-HSA (human serum albumin fused to the N-terminal end of wild type CFI)
- C3b-enriched AP hemolytic assay IC50 [15]: 26.4 nM

Molecule: CFI-HSA variant Y408L; E457G; N531G with hCR1; CCP15; CCP16; CCP17 C-terminal fusion (enzyme)
- C4c No Cofactor EC50 (C4b cleavage, C4c ELISA) (C4b [3]): 156 nM

B1: Plasma derived, wild type human CFI (enzyme)
chain: KVTYTSQEDLVEKKCLAKKYTHLSCDKVFCQPWQRCIEGTCVCKLPYQCPKNGTAVCATNRRSFPTYCQQKSLECLHPGTKFLNNGTCTAEGKFSVSLKHGNTDSEGIVEVKLVDQDKTMFICKSSWSMREANVACLDLGFQQGADTQRRFKLSDLSINSTECLHVHCRGLETSLAECTFTKRRTMGYQDFADVVCYTQKADSPMDDFFQCVNGKYISQMKACDGINDCGDQSDELCCKACQGKGFHCKSGVCIPSQYQCNGEVDCITGEDEVGCAGFASVTQEETEILTADMDAERRRIKSLLPKLSCGVKNRMHIRRKRIVGGKRAQLGDLPWQVAIKDASGITCGGIYIGGCWILTAAHCLRASKTHRYQIWTTVVDWIHPDLKRIVIEYVDRIIFHENYNAGTYQNDIALIEMKKDGNKKDCELPRSIPACVPWSPYLFQPNDTCIVSGWGREKDNERVFSLQWGEVKLISNCSKFYGNRFYEKEMECAGTYDGSIDACKGDSGGPLVCMDANNVTYVWGVVSWGENCGKPEFPGVYTKVANYFDWISYHVGRPFISQYNV
- C4b cleavage EC50 (human C4b (human) [13]): 385 nM
- C3b cleavage EC50 [14]: 25.3 nM
- C3b-enriched AP hemolytic assay IC50 [15]: 12.9 nM
- CP IC50, classical pathway hemolysis of sensitised sheep red cells (C4b [16]): 135 nM
- AP IC50, alternative pathway hemolysis (C3b [17]): 6.05 nM

The next lines start with the values.

- C4c No Cofactor EC50 (C4b cleavage, C4c ELISA) (C4b [3]): 106 nM
Molecule: CFI-HSA variant Y408L; E457G; E461Q; R462K; N531G with hCR1; CCP15; CCP16; CCP17 C-terminal fusion (enzyme)

- C3b cleavage, % Activity (C3b [5]): 123%
- C3dg formation in activated human serum (TRIFMA), EC50 WT/EC50Variant (C3b [6]): 0.6
- C3b cleavage rate, kmut/kwt (C3b [7]): 3
Molecule: CFI-HSA variant Y408L + N531G (enzyme)

- Fold-decrease EC50 (iC3b) vs. CFI WT [4]: 3.67 fold
Molecule: CFI-HSA (E416A; N531G variant) (enzyme)

- C4c No Cofactor EC50 (C4b cleavage, C4c ELISA) (C4b [3]): 44.8 nM
Molecule: CFI-HSA variant E457G; N531G; P535G with hCR1; CCP15; CCP16; CCP17 C-terminal fusion (enzyme)

- activation (cleavage) of CFI-HSA by furin [9]: > 90%
Molecule: recombinant human furin (from UniProt P09958) (enzyme)

- C4c No Cofactor EC50 (C4b cleavage, C4c ELISA) (C4b [3]): 160 nM
Molecule: CFI-HSA variant P535G with hCR1; CCP15; CCP16; CCP17 C-terminal fusion (enzyme)

- Fold-decrease EC50 (iC3b) vs. CFI WT [4]: 0.79 fold
Molecule: CFI-HSA (hCR1; CCP15; CCP16; CCP17 C-terminal fusion) (enzyme)
